Data taken from patent US20240252592A1 (TIANJIN INSTITUTE OF PHARMACEUTICAL RESEARCH, published 2024).
Numbered stars: 1 amine (or outer) side, 2 acyl side, 3 side chain; on linkers, the order of the positions; unused ones are H or OH. Square brackets hold non-standard residues; d marks the D form. Side chains are listed from the residue outwards. Ends that are not written are not given here. * marks the point of attachment. C18 diacid = O=C(O)CCCCCCCCCCCCCCCCC(=O)*; γGlu = O=C(O)[C@H](CCC(=O)[*:2])N[*:1]; AEEA = NCCOCCOCC(=O)O; Aib = CC(C)(N)C(=O)O

Legend:
human GLP-1 receptor = human GLP-1 receptor (human, UniProt P43220 24-463); assay: cell-based or functional assay
GC receptor = assay: cell-based or functional assay

Binder	EC50 of GLP-1 receptor mediated cAMP production (human GLP-1 receptor) [nM]	EC50 of GC receptor mediated cAMP production (GC receptor) [nM]
H[Aib]QGTFTSDK([AEEA-AEEA-γGlu-C18 diacid])SKYLEERAAKEFIAWLEAGGPSSG-NH2 (not fully specified; printed as HAibQGTFTSDK**SKYLEERAAKEFIAWLEAGGPSSG-Amid) [Compound 27]	0.011	0.014
H[Aib]QGTFTSDYSKYLEERAAK([AEEA-AEEA-γGlu-C18 diacid])EFVEWLEGGPSSG-NH2 (not fully specified; printed as HAibQGTFTSDYSKYLEERAAK**EFVEWLEGGPSSG-Amid) [Compound 32]	1.01	0.077
H[Aib]QGTFTSDYSKYLDERKAK([AEEA-AEEA-γGlu-C18 diacid])EFVEWLEAGGPSSG-NH2 (not fully specified; printed as HAibQGTFTSDYSKYLDERKAK**EFVEWLEAGGPSSG-Amid) [Compound 42]	0.52	0.024
HSQGTFTSDYSKYLDERAAK([AEEA-AEEA-γGlu-C18 diacid])EFIAWLEGGPSSG-NH2 (not fully specified; printed as HSQGTFTSDYSKYLDERAAK**EFIAWLEGGPSSG-Amid) [Compound 38]	0.716	0.102
H[Aib]QGTFTSDYSKYLEERKAK([AEEA-AEEA-γGlu-C18 diacid])EFIAWLEAGGPSSG-NH2 (not fully specified; printed as HAibQGTFTSDYSKYLEERKAK**EFIAWLEAGGPSSG-Amid) [Compound 44]	0.371	0.219
H[Aib]QGTFTSDK([AEEA-AEEA-γGlu-C18 diacid])SKYLEERAAKEFVAWLEAGGPSSG-NH2 (not fully specified; printed as HAibQGTFTSDK**SKYLEERAAKEFVAWLEAGGPSSG-Amid) [Compound 22]	0.027	0.018
H[Aib]QGTFTSDYSKYLEEKRAK([AEEA-AEEA-γGlu-C18 diacid])EFVEWLEAGGPSSG-NH2 (not fully specified; printed as HAibQGTFTSDYSKYLEEKRAK**EFVEWLEAGGPSSG-Amid) [Compound 54]	0.219	0.274
HXQGTFTSDKSKYLEERAAKEFVEWLLEAGGPSSG (HELM PEPTIDE1{H.[Aib].Q.G.T.F.T.S.D.K.S.K.Y.L.E.E.R.A.A.K.E.F.V.E.W.L.L.E.A.G.G.P.S.S.G.[am]}|PEPTIDE2{[CCCCCCCCCCCCCCCC(=O)[*:2]].[gGlu].[gGlu]}$PEPTIDE1,PEPTIDE2,10:R3-3:R2$$$V2.0; N-terminus assumed; SMILES CCCCCCCCCCCCCCCC(=O)N[C@@H](CCC(=O)N[C@@H](CCC(=O)NCCCC[C@H](NC(=O)[C@H](CC(=O)O)NC(=O)[C@H](CO)NC(=O)[C@@H](NC(=O)[C@H](Cc1ccccc1)NC(=O)[C@@H](NC(=O)CNC(=O)[C@H](CCC(N)=O)NC(=O)C(C)(C)NC(=O)[C@@H](N)Cc1c[nH]cn1)[C@@H](C)O)[C@@H](C)O)C(=O)N[C@@H](CO)C(=O)N[C@@H](CCCCN)C(=O)N[C@@H](Cc1ccc(O)cc1)C(=O)N[C@@H](CC(C)C)C(=O)N[C@@H](CCC(=O)O)C(=O)N[C@@H](CCC(=O)O)C(=O)N[C@@H](CCCNC(=N)N)C(=O)N[C@@H](C)C(=O)N[C@@H](C)C(=O)N[C@@H](CCCCN)C(=O)N[C@@H](CCC(=O)O)C(=O)N[C@@H](Cc1ccccc1)C(=O)N[C@H](C(=O)N[C@@H](CCC(=O)O)C(=O)N[C@@H](Cc1c[nH]c2ccccc12)C(=O)N[C@@H](CC(C)C)C(=O)N[C@@H](CC(C)C)C(=O)N[C@@H](CCC(=O)O)C(=O)N[C@@H](C)C(=O)NCC(=O)NCC(=O)N1CCC[C@H]1C(=O)N[C@@H](CO)C(=O)N[C@@H](CO)C(=O)NCC(N)=O)C(C)C)C(=O)O)C(=O)O) [Compound 25]	0.211	0.278
HXQGTFTSDYSKYLEEKRAKEFVEWLLEAGGPSSG (HELM PEPTIDE1{H.[Aib].Q.G.T.F.T.S.D.Y.S.K.Y.L.E.E.K.R.A.K.E.F.V.E.W.L.L.E.A.G.G.P.S.S.G.[am]}|PEPTIDE2{[CCCCCCCCCCCCCCCC(=O)[*:2]].[gGlu].[gGlu]}$PEPTIDE1,PEPTIDE2,20:R3-3:R2$$$V2.0; N-terminus assumed; SMILES CCCCCCCCCCCCCCCC(=O)N[C@@H](CCC(=O)N[C@@H](CCC(=O)NCCCC[C@H](NC(=O)[C@H](C)NC(=O)[C@H](CCCNC(=N)N)NC(=O)[C@H](CCCCN)NC(=O)[C@H](CCC(=O)O)NC(=O)[C@H](CCC(=O)O)NC(=O)[C@H](CC(C)C)NC(=O)[C@H](Cc1ccc(O)cc1)NC(=O)[C@H](CCCCN)NC(=O)[C@H](CO)NC(=O)[C@H](Cc1ccc(O)cc1)NC(=O)[C@H](CC(=O)O)NC(=O)[C@H](CO)NC(=O)[C@@H](NC(=O)[C@H](Cc1ccccc1)NC(=O)[C@@H](NC(=O)CNC(=O)[C@H](CCC(N)=O)NC(=O)C(C)(C)NC(=O)[C@@H](N)Cc1c[nH]cn1)[C@@H](C)O)[C@@H](C)O)C(=O)N[C@@H](CCC(=O)O)C(=O)N[C@@H](Cc1ccccc1)C(=O)N[C@H](C(=O)N[C@@H](CCC(=O)O)C(=O)N[C@@H](Cc1c[nH]c2ccccc12)C(=O)N[C@@H](CC(C)C)C(=O)N[C@@H](CC(C)C)C(=O)N[C@@H](CCC(=O)O)C(=O)N[C@@H](C)C(=O)NCC(=O)NCC(=O)N1CCC[C@H]1C(=O)N[C@@H](CO)C(=O)N[C@@H](CO)C(=O)NCC(N)=O)C(C)C)C(=O)O)C(=O)O) [Compound 26]	0.193	0.197
H[Aib]QGTFTSDK([AEEA-AEEA-γGlu-C18 diacid])SKYLDEKRAKEFIEWLEAGGPSSG-NH2 (N-terminus assumed; SMILES CC[C@H](C)[C@H](NC(=O)[C@H](Cc1ccccc1)NC(=O)[C@H](CCC(=O)O)NC(=O)[C@H](CCCCN)NC(=O)[C@H](C)NC(=O)[C@H](CCCNC(=N)N)NC(=O)[C@H](CCCCN)NC(=O)[C@H](CCC(=O)O)NC(=O)[C@H](CC(=O)O)NC(=O)[C@H](CC(C)C)NC(=O)[C@H](Cc1ccc(O)cc1)NC(=O)[C@H](CCCCN)NC(=O)[C@H](CO)NC(=O)[C@H](CCCCNC(=O)COCCOCCNC(=O)COCCOCCNC(=O)CC[C@H](NC(=O)CCCCCCCCCCCCCCCCC(=O)O)C(=O)O)NC(=O)[C@H](CC(=O)O)NC(=O)[C@H](CO)NC(=O)[C@@H](NC(=O)[C@H](Cc1ccccc1)NC(=O)[C@@H](NC(=O)CNC(=O)[C@H](CCC(N)=O)NC(=O)C(C)(C)NC(=O)[C@@H](N)Cc1c[nH]cn1)[C@@H](C)O)[C@@H](C)O)C(=O)N[C@@H](CCC(=O)O)C(=O)N[C@@H](Cc1c[nH]c2ccccc12)C(=O)N[C@@H](CC(C)C)C(=O)N[C@@H](CCC(=O)O)C(=O)N[C@@H](C)C(=O)NCC(=O)NCC(=O)N1CCC[C@H]1C(=O)N[C@@H](CO)C(=O)N[C@@H](CO)C(=O)NCC(N)=O) [Compound 23]	0.194	0.329
HXQGTFTSDKSKYLXERAAKEFIXWLEAGGPSSG (not fully specified; Lys 10 side chain -Ado-Ado-γE-OC17H32COOH; C-terminal amide) [Compound 36]	0.072	0.069
HXQGTFTSDKSKYLXERAAKEFIXWLEAGGPSSG (HELM PEPTIDE1{H.[Aib].Q.G.T.F.T.S.D.K.S.K.Y.L.E.E.R.A.A.K.E.F.I.A.W.L.E.A.G.G.P.S.S.G.[am]}|PEPTIDE2{[CCCCCCCCCCCCCCCC(=O)[*:2]].[gGlu].[gGlu]}$PEPTIDE1,PEPTIDE2,10:R3-3:R2$$$V2.0; N-terminus assumed; SMILES CCCCCCCCCCCCCCCC(=O)N[C@@H](CCC(=O)N[C@@H](CCC(=O)NCCCC[C@H](NC(=O)[C@H](CC(=O)O)NC(=O)[C@H](CO)NC(=O)[C@@H](NC(=O)[C@H](Cc1ccccc1)NC(=O)[C@@H](NC(=O)CNC(=O)[C@H](CCC(N)=O)NC(=O)C(C)(C)NC(=O)[C@@H](N)Cc1c[nH]cn1)[C@@H](C)O)[C@@H](C)O)C(=O)N[C@@H](CO)C(=O)N[C@@H](CCCCN)C(=O)N[C@@H](Cc1ccc(O)cc1)C(=O)N[C@@H](CC(C)C)C(=O)N[C@@H](CCC(=O)O)C(=O)N[C@@H](CCC(=O)O)C(=O)N[C@@H](CCCNC(=N)N)C(=O)N[C@@H](C)C(=O)N[C@@H](C)C(=O)N[C@@H](CCCCN)C(=O)N[C@@H](CCC(=O)O)C(=O)N[C@@H](Cc1ccccc1)C(=O)N[C@H](C(=O)N[C@@H](C)C(=O)N[C@@H](Cc1c[nH]c2ccccc12)C(=O)N[C@@H](CC(C)C)C(=O)N[C@@H](CCC(=O)O)C(=O)N[C@@H](C)C(=O)NCC(=O)NCC(=O)N1CCC[C@H]1C(=O)N[C@@H](CO)C(=O)N[C@@H](CO)C(=O)NCC(N)=O)[C@@H](C)CC)C(=O)O)C(=O)O) [Compound 1]	0.0654	0.0574
H[Aib]QGTFTSDYSKYLEEKRAK([AEEA-AEEA-γGlu-C18 diacid])EFVAWLEAGGPSSG-NH2 (not fully specified; printed as HAibQGTFTSDYSKYLEEKRAK**EFVAWLEAGGPSSG-Amid) [Compound 53]	0.532	0.316
H[Aib]QGTFTSDYSKYLDEKRAK([AEEA-AEEA-γGlu-C18 diacid])EFIAWLEAGGPSSG-NH2 (not fully specified; printed as HAibQGTFTSDYSKYLDEKRAK**EFIAWLEAGGPSSG-Amid) [Compound 50]	0.119	0.048
